This note sets out measurements from the supplement of paper PMC10567573.

The data set can be described thus: protein stability index of a GFP-peptide fusion (GPS, HEK-293T) (PSI 1-6); higher = more stable.
Where [1] appears, read: treatment: DMSO, c terminus: a fixed tail appended.
Where [2] appears, read: treatment: MLN4924 1 uM, 8 h, c terminus: a fixed tail appended.

± gives the standard deviation.
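Further: 24-mer peptide tiles fused after GFP, lentivirally expressed, FACS-sorted into six equal bins by GFP/DsRed ratio, decoded by Illumina sequencing, PSI is the read-weighted mean bin number.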

For the sequence QVNGHPDPFDEIILFSLPPALDWD [PTPN9], the protein stability index was found to be 2.27 ± 0.23 under setting [1] and 2.31 ± 0.4 under setting [2].
The like results for QWTVGKLNCPFCGARLGGFNFVST [RNF180] were, in that order, 2.46 ± 0.39 and 2.65 ± 0.54.
The like results for QYIISDLASARIIEQDAVVPSEWL [GMCL1] were, in that order, 2.76 ± 0.24 and 2.76 ± 0.25.
For QYQLLRCNVDLLKIIQLGLTFMNE [CNOT7] the same measures were 2.73 ± 1.8 and 2.86 ± 0.42.
With RADLVFIIDSSRSVNTHDYAKVKE [MATN2], the protein stability index runs as follows: under setting [1], 2.51 ± 0.32; under setting [2], 2.72 ± 0.34.
The like results for RALSDTTEELTVIKSSLKDEYQYS [SLC2A12] were, in that order, 4.54 ± 0.22 and 4.68 ± 0.08.
The like results for RASRLQAPVLVAAPHSTFFDPIVL [LPCAT4] were, in that order, 2.6 ± 0.31 and 2.71 ± 0.2.
The like results for RCRQSLEDSESLRIKEVEHMTRHL [LRRC45] were, in that order, 3.42 ± 0.14 and 3.46 ± 0.17.
As to RDNGHSNRDEHSSRGYRNHRSSRE [RBMY1A1], the protein stability index came out at 5.1 ± 0.074 under setting [1] and 5.24 ± 0.088 under setting [2].
The sequence REIMEKFGKQPVSLPARRLKLRGR [CPXM2] showed a protein stability index under setting [1] of 3.64 ± 0.16 and a protein stability index under setting [2] of 3.65 ± 0.088.
The like results for RELLDRAMREAIQSYPSQDKPLPP [SOAT2] were, in that order, 3.94 ± 0.12 and 3.95 ± 0.083.
The like results for REQKEKSPPDQPAVPHPPPSTPIK [ADD1] were, in that order, 5.39 ± 0.12 and 5.53 ± 0.18.
The like results for RFCLPHLVALAEQHAVQELTKAAT [RHOBTB1] were, in that order, 2.12 ± 0.18 and 2.08 ± 0.15.
For the sequence RGIDIIKWMERYLRDKTVMIIVAI [TRAF3IP2], the protein stability index runs as follows: under setting [1], 2.25 ± 0.31; under setting [2], 2.33 ± 0.42.
On to RGLVGVGEASYSTIAPTLIADLFV [SPNS1], for which the protein stability index by setting is: under setting [1], 2.29 ± 0.62; under setting [2], 2.13 ± 0.26.
For RGPDNALLEATGGAAGRSHHLDED [KCTD10] the same measures were 5.54 ± 0.26 and 5.42 ± 0.25.
The like results for RGRFTTYEIRVKTNLPIFKLKEST [SNX3] were, in that order, 2.54 ± 0.98 and 2.47 ± 0.57.
For RGTHAVVGVATADAPLHSVGYTTL [SPSB1] the same measures were 2.73 ± 0.26 and 2.88 ± 0.14.
Consider RGWLLTSGTDKVIKLWDMTPVVS [WDFY2], for which the protein stability index is 2.01 ± 0.2 (treatment: DMSO, c terminus: native) and 2.26 ± 0.24 (treatment: MLN4924 1 uM, 8 h, c terminus: native).
The sequence RHRIPEPEAAVLFRQMATALAHCH [TRIB3] came in with a protein stability index under setting [1] of 2.48 ± 0.084 and a protein stability index under setting [2] of 2.29 ± 0.19.
Regarding RKLSFSHSDHSSEMSLPEVQKDKY [SPATS1], the protein stability index under setting [1] was 4.85 ± 0.15 and the protein stability index under setting [2] is 4.93 ± 0.2.
For RKPPVFDENEDVNFDHFEILRAIG [STK32A] the same measures were 2.76 ± 0.36 and 2.86 ± 0.31.
In the case of RKQRRRERWLQKQGKYSGVGLLDH [RNF180], the protein stability index turned out to be 3.43 ± 0.26 under setting [1] and 3.94 ± 0.33 under setting [2].
The like results for RKSSKLIMELTGGGQESSGLNLGK [MYOZ1] were, in that order, 3.72 ± 0.082 and 3.98 ± 0.26.
With RLLGSVQQDLERSLQDASRGDPAH [PBXIP1], the protein stability index under setting [1] is 4.7 ± 0.2 and the protein stability index under setting [2] came to 4.56 ± 0.46.
For RLPRQNSDGGQKNKPREHIIDCGD [WSB1] the same measures were 4.54 ± 0.39 and 5.07 ± 0.095.
Turning to RLQQELEQQRCLLLARLRELEQQI [TRIM15], the protein stability index runs as follows: under setting [1], 3.68 ± 0.2; under setting [2], 3.69 ± 0.39.
For RLQVVKLLAKMFGAKDSELASQNK [PDS5B] the same measures were 2.11 ± 0.34 and 2.7 ± 0.075.
The like results for RMETPKSREITTLANNQCMATESV [EHMT1] were, in that order, 4.56 ± 0.22 and 4.79 ± 0.08.
For RMLMKRLDVTVQSFGWSDRAKVKT [FAM98B] the same measures were 2.48 ± 0.34 and 2.34 ± 0.34.
Regarding RPIIASISSGVVSIWAQNQVENWS [RBBP5], the protein stability index amounted to 2.22 ± 0.34 under setting [1] and 2.26 ± 0.42 under setting [2].
For RPSEAQSVILRRYFLELTQSFIIP [DENND6A] the same measures were 2.91 ± 0.44 and 2.67 ± 0.45.
For RQIQEEEDEKQRLQNEVRQLTEKL [SSNA1] the same measures were 4.98 ± 0.19 and 5.04 ± 0.21.
In turn, RQLALPATEQAATQESTFQELCEG [NOP53] registered a protein stability index under setting [1] of 5.12 ± 0.16 and a protein stability index under setting [2] of 5.22 ± 0.21.
For RREVERKQKGSEENLDEAREQKEK [ADD1] the same measures were 5.5 ± 0.29 and 4.91 ± 0.87.
The like results for RRTYLGGAAGRSQEPEVPCAAVLP [RSPH3] were, in that order, 4.37 ± 0.092 and 4.37 ± 0.18.
For RSLNVASGSGKSGGYGFGRGRASG [KRT71] the same measures were 4.35 ± 0.38 and 4.49 ± 0.27.
Consider RSQQQEPLLCPSYQSYFKTIEELQ [KRT33B], for which the protein stability index is 3.21 ± 0.37 under setting [1] and 3.43 ± 0.18 under setting [2].
For RSWFPSAPGSASSSKVSGVLKKLA [YJU2B] the same measures were 2.61 ± 0.27 and 2.5 ± 0.38.
As for RTDLEMQIEGLNEELAYLKKNHEE [KRT15], the protein stability index is 4.85 ± 0.3 under setting [1] and 4.77 ± 0.22 under setting [2].
For RTHGDMHSLVRSRHRIPEPEAAVL [TRIB3] the same measures were 3.8 ± 0.11 and 3.91 ± 0.086.
For the sequence RTHTGEKPYKCTLCGENFSHRSNL [ZNF263], the protein stability index is, setting by setting: under setting [1], 2.43 ± 0.27; under setting [2], 2.79 ± 0.53.
Turning to RTIVEEVQDGKVISSREQVHQTTR [KRT17], the protein stability index under setting [1] amounted to 4.69 ± 0.25 and the protein stability index under setting [2] was 5.01 ± 0.38.
RTLASGRLLSYRGERVAARGYWGD [DNAAF3] showed a protein stability index under setting [1] of 2.96 ± 0.17 and a protein stability index under setting [2] of 3.08 ± 0.19.
For RVLQNLLTIEERYLPQCSYFKCVQ [CCND2], the protein stability index reads like this: under setting [1], 3.08 ± 0.22; under setting [2], 2.69 ± 0.57.
Turning to RVQQHIESKLLGSNSSRMYFTQTL [MLH1], the protein stability index runs as follows: under setting [1], 2.37 ± 0.23; under setting [2], 2.29 ± 0.38.
The like results for RVRGLGLPKLYLPTGPRRGRDELG [CDKN1A] were, in that order, 3.33 ± 0.58 and 3.43 ± 0.057.
With RYMLTRDYLTVKVWDLNMEARPIE [PPP2R2C], the protein stability index by setting is: under setting [1], 2.51 ± 0.3; under setting [2], 2.37 ± 0.24.
For SACTVALHIFQLNEDGPSSENLEE [TRIP13], the protein stability index stood at 3.23 ± 0.2 under setting [1] and 3.33 ± 0.19 under setting [2].
The like results for SALGRQRLQDISSLPLPQSLKNYL [SPSB4] were, in that order, 2.85 ± 0.11 and 3.27 ± 0.6.
The like results for SASEEEDTKPKPTKRKRKGSSAVG [INTS3] were, in that order, 5.23 ± 0.23 and 5.38 ± 0.16.
For SAWSNIQEAPLQDDSCLNNDIPHS [FAN1] the same measures were 4.98 ± 0.2 and 5.07 ± 0.067.
SCKENCTCSSCLLRAPTISDLLND [EDARADD]: the protein stability index is, setting by setting: under setting [1], 4.85 ± 0.41; under setting [2], 4.83 ± 0.33.
For SDGILRGNGTGYLPGRGRVLSSWS [RHOBTB2] the same measures were 3.42 ± 0.2 and 3.26 ± 0.3.
For SDVVDWLYHNVEGFTDRREARKYA [DVL3] the same measures were 3.23 ± 0.31 and 3.53 ± 0.33.
For SEDVNWGYEKRNLARVPKLDLKRQ [CHGB] the same measures were 4.34 ± 0.3 and 4.27 ± 0.25.
For SEEYQQAQHKFLVAVESMEPNNIV [TCF25], the protein stability index under setting [1] turned out to be 4.26 ± 0.22 and the protein stability index under setting [2] came to 4.29 ± 0.15.
For SEFQAALSRKVAELVHFLLLKYRA [MAGEA3] the same measures were 2.57 ± 0.56 and 2.48 ± 0.51.
For SEGFESDSSHDSARASEGSDSGSD [SMG5] the same measures were 5.51 ± 0.3 and 5.7 ± 0.1.
The like results for SELEDLTEPEQRELKTKLTKLEAE [TPD52L3] were, in that order, 5.31 ± 0.45 and 5.6 ± 0.15.
For the sequence SFRKFRYGYNNVVTIPAGATHILV [ADAMTS4], the protein stability index amounted to 2.64 ± 0.28 under setting [1] and 2.99 ± 0.51 under setting [2].
On to SGAAASLNVDAAVQQWLQKGTPAS [CHIT1], for which the protein stability index reads like this: under setting [1], 4.12 ± 0.33; under setting [2], 4.01 ± 0.35.
The like results for SGIPEVKCYLNGVKVPGIVRLRTL [CLCN6] were, in that order, 2.4 ± 0.53 and 1.91 ± 0.35.
For SGKESPPVSDTPDEGDEPMPIPED [IKZF1] the same measures were 5.866 ± 0.015 and 5.71 ± 0.38.
For SGPMQAALQAAAHASVDIKDVLDF [SMG5] the same measures were 4.42 ± 0.17 and 4.18 ± 0.1.
On to SGYHYGVWSCEGCKAFFKRSIQGH [ESR2], for which the protein stability index worked out at 2.03 ± 0.33 under setting [1] and 2.52 ± 0.41 under setting [2].
For the sequence SKAKPKPPKQAQKEQRKQMKGRGQ [TBC1D10A], the protein stability index by setting is: under setting [1], 5.02 ± 0.23; under setting [2], 5.08 ± 0.31.
SLFCYEDQEAVCLICAISHTHRAH [TRIM39]: the protein stability index by setting is: under setting [1], 2.15 ± 0.19; under setting [2], 2.19 ± 0.2.
The like results for SLGQMKELGVIFYNCSCLVLDLQR [PLD5] were, in that order, 2.44 ± 0.64 and 2.93 ± 0.48.
The like results for SLHVDDRERMELLEEAKKMEMAKF [RIPK4] were, in that order, 4.92 ± 0.42 and 4.76 ± 0.15.
The sequence SLNALEDQDLDALMADLVADISEA [APBB1IP] had a protein stability index under setting [1] of 4.58 ± 0.15 and a protein stability index under setting [2] of 4.36 ± 0.23.
Regarding SLVAILLVFLITAILVKVQLDALP [SLC29A1], the protein stability index by setting is: under setting [1], 2.35 ± 0.6; under setting [2], 2.54 ± 0.58.
